Reference: the Immune Epitope Database (IEDB)
Values belong to the sequence of their own block, whether it stands above or below them.

Columns and labels:
HLA-B*57:01 [1] = assay: IEDB peptide-MHC binding, purified MHC/direct/fluorescence; filed as Kd, often an IC50 or EC50 that approximates it; ≥ and ≤ were set here for values at or beyond the usual limits of such assays; conditions: source organism: Camelpox virus M-96
HLA-B*15:17 = assay: as above; conditions: source organism: Camelpox virus M-96
HLA-B*18:01 [2] = assay: as above; conditions: source organism: Camelpox virus M-96
HLA-B*27:05 = assay: as above; conditions: source organism: Camelpox virus M-96
HLA-B*48:01 = assay: as above; conditions: source organism: Camelpox virus M-96
HLA-B*58:01 [3] = assay: as above; conditions: source organism: Camelpox virus M-96
HLA-B*15:01 = assay: as above; conditions: source organism: Camelpox virus M-96
HLA-A*01:01 [4] = assay: as above; conditions: source organism: Camelpox virus M-96
HLA-B*08:03 = assay: as above; conditions: source organism: Variola virus
HLA-A*68:02 [5] = assay: as above; conditions: source organism: Camelpox virus M-96
HLA-A*26:03 = assay: as above; conditions: source organism: Variola virus
HLA-A*02:01 [6] = assay: as above
HLA-A*69:01 = assay: as above; conditions: source organism: Camelpox virus M-96
HLA-A*02:03 = assay: IEDB peptide-MHC binding, purified MHC/competitive/fluorescence; filed as Kd, often an IC50 or EC50 that approximates it; ≥ and ≤ were set here for values at or beyond the usual limits of such assays
HLA-A*30:01 = assay: as above; conditions: source organism: Vaccinia virus Copenhagen
HLA-B*08:01 [7] = assay: as above; conditions: source organism: Vaccinia virus Copenhagen
HLA-A*11:01 [8] = assay: as above; conditions: source organism: Vaccinia virus Copenhagen
HLA-B*07:02 [9] = assay: as above; conditions: source organism: Vaccinia virus Copenhagen
HLA-B*57:01 [10] = assay: IEDB peptide-MHC binding, purified MHC/competitive/radioactivity; filed as Kd, often an IC50 or EC50 that approximates it; ≥ and ≤ were set here for values at or beyond the usual limits of such assays; conditions: source organism: Homo sapiens
HLA-A*29:02 [11] = assay: as above; conditions: source organism: Homo sapiens
HLA-B*58:01 [12] = assay: as above; conditions: source organism: Homo sapiens
HLA-A*02:07 = assay: as above; conditions: source organism: Homo sapiens
HLA-A*02:01 [13] = assay: as above; conditions: source organism: Homo sapiens
HLA-B*46:01 = assay: IEDB peptide-MHC binding, purified MHC/competitive/fluorescence; filed as Kd, often an IC50 or EC50 that approximates it; ≥ and ≤ were set here for values at or beyond the usual limits of such assays; conditions: source organism: Homo sapiens
HLA-B*15:02 = assay: as above; conditions: source organism: Homo sapiens
HLA-A*03:01 = assay: IEDB peptide-MHC binding, purified MHC/competitive/fluorescence; ≥ and ≤ were set here for values at or beyond the usual limits of such assays; conditions: source organism: Mus musculus
HLA-A*29:02 [14] = assay: as above; conditions: source organism: Mus musculus
HLA-B*18:01 [15] = assay: as above; conditions: source organism: Mus musculus
HLA-B*40:02 = assay: as above; conditions: source organism: Mus musculus
HLA-B*58:01 [16] = assay: as above; conditions: source organism: Mus musculus
HLA-B*35:01 = assay: as above; conditions: source organism: Mus musculus
HLA-B*44:03 = assay: as above; conditions: source organism: Mus musculus
HLA-B*14:02 = assay: as above; conditions: source organism: Mus musculus
HLA-B*37:01 = assay: as above; conditions: source organism: Mus musculus
HLA-A*01:01 [17] = assay: as above; conditions: source organism: Mus musculus
HLA-A*68:02 [18] = assay: as above; conditions: source organism: Mus musculus
HLA-B*51:01 = assay: as above; conditions: source organism: Mus musculus
HLA-A*24:02 = assay: as above; conditions: source organism: Mus musculus
HLA-A*25:01 = assay: as above; conditions: source organism: Mus musculus
HLA-A*31:01 = assay: as above; conditions: source organism: Mus musculus
HLA-B*08:01 [19] = assay: as above; conditions: source organism: Mus musculus
HLA-A*11:01 [20] = assay: as above; conditions: source organism: Mus musculus
HLA-B*07:02 [21] = assay: as above; conditions: source organism: Mus musculus
HLA-B*53:01 = assay: as above; conditions: source organism: Mus musculus
HLA-A*02:01 [22] = assay: as above; conditions: source organism: Mus musculus
HLA-A*02:06 = assay: IEDB peptide-MHC binding, purified MHC/direct/fluorescence; filed as Kd, often an IC50 or EC50 that approximates it; ≥ and ≤ were set here for values at or beyond the usual limits of such assays; conditions: source organism: Geobacillus sp. WCH70
HLA-A*02:12 = assay: as above; conditions: source organism: Geobacillus sp. WCH70

Sequence: NRLKPRDFK
- Kd (HLA-B*57:01 [1]): ≥ 20 µM
- Kd (HLA-B*15:17): ≥ 20 µM
- Kd (HLA-B*18:01 [2]): ≥ 20 µM
- Kd (HLA-B*27:05): 1.79 µM
- Kd (HLA-B*48:01): ≥ 20 µM
- Kd (HLA-B*58:01 [3]): ≥ 20 µM
- Kd (HLA-B*15:01): ≥ 20 µM
- Kd (HLA-A*01:01 [4]): ≥ 20 µM
- Kd (HLA-B*08:03): ≥ 20 µM
- Kd (HLA-A*68:02 [5]): ≥ 20 µM
- Kd (HLA-A*26:03): ≥ 20 µM
- Kd (HLA-A*02:01 [6]; source organism: Camelpox virus M-96): ≥ 20 µM
- Kd (HLA-A*69:01): ≥ 20 µM
- Kd (HLA-A*02:03; source organism: Vaccinia virus Copenhagen): ≥ 20 µM
- Kd (HLA-A*30:01): ≥ 20 µM
- Kd (HLA-B*08:01 [7]): 3 µM
- Kd (HLA-A*11:01 [8]): ≥ 20 µM
- Kd (HLA-B*07:02 [9]): 3 µM

- Kd (HLA-B*57:01 [10]): 0.106 µM
- Kd (HLA-A*29:02 [11]): 0.0441 µM
- Kd (HLA-B*58:01 [12]): 0.084 µM
- Kd (HLA-A*02:07): ≥ 77.7 µM
- Kd (HLA-A*02:01 [13]): ≥ 78.1 µM
- Kd (HLA-B*46:01): 0.0131 µM
- Kd (HLA-B*15:02): 0.00255 µM
Sequence: FAFVTDNTY

- IC50 (HLA-A*03:01): ≥ 20 µM
- IC50 (HLA-A*29:02 [14]): 0.0381 µM
- IC50 (HLA-B*18:01 [15]): ≥ 20 µM
- IC50 (HLA-B*40:02): ≥ 20 µM
- IC50 (HLA-B*58:01 [16]): ≥ 20 µM
- IC50 (HLA-B*35:01): 0.0138 µM
- IC50 (HLA-B*44:03): ≥ 20 µM
- IC50 (HLA-B*14:02): ≥ 20 µM
- IC50 (HLA-B*37:01): ≥ 20 µM
- IC50 (HLA-A*01:01 [17]): ≥ 20 µM
- IC50 (HLA-A*68:02 [18]): ≥ 20 µM
- IC50 (HLA-B*51:01): ≥ 20 µM
- IC50 (HLA-A*24:02): ≥ 20 µM
- IC50 (HLA-A*25:01): ≥ 20 µM
- IC50 (HLA-A*31:01): ≥ 20 µM
- IC50 (HLA-B*08:01 [19]): ≥ 20 µM
- IC50 (HLA-A*11:01 [20]): ≥ 20 µM
- IC50 (HLA-B*07:02 [21]): ≥ 20 µM
- IC50 (HLA-B*53:01): ≥ 20 µM
- IC50 (HLA-A*02:01 [22]): ≥ 20 µM
Sequence: VALFSSCPVAY

Sequence: GLPESTPSL
- Kd (HLA-A*02:06): 0.014 µM
- Kd (HLA-A*02:12): 0.12 µM
- Kd (HLA-A*02:01 [6]; source organism: Bacillus cereus): 0.0121 µM
- Kd (HLA-A*02:03; source organism: Bacillus anthracis str. A0488): 0.0214 µM
